Results published in article PMC2606091 (Cell, 2008).

Key:
Hsp33 (Escherichia coli) = Hsp33 (Escherichia coli) (UniProt P0A6Y5); conditions: cited from earlier work
AUC = molecular target: the molecule itself; assay: AUC

Molecule	Kd (Hsp33 (Escherichia coli)) [nM]	Kd (AUC) [nM]	stoichiometry N (AUC)
Hsp33 (from UniProt P0A6Y5)	590	–	–
Hsp33 oxidised and activated with a 10-fold molar excess of HOCl (Hsp33_(HOCl)) (natural protein, two intramolecular disulfide bonds (Cys232-Cys234; Cys265/Cys268 fully oxidised) after HOCl treatment) MPQHDQLHRYLFENFAVRGELVTVSETLQQILENHDYPQPVKNVLAELLVATSLLTATLKFDGDITVQLQGDGPMNLAVINGNNNQQMRGVARVQGEIPENADLKTLVGNGYVVITITPSEGERYQGVVGLEGDTLAACLEDYFMRSEQLPTRLFIRTGDVDGKPAAGGMLLQVMPAQNAQQDDFDHLATLTETIKTEELLTLPANEVLWRLYHEEEVTVYDPQDVEFKCTCSRERCADALKTLPDEEVDSILAEDGEIDMHCDYCGNHYLFNAMDIAEIRNNASPADPQVH	–	570	2
